Each block holds one binder with its values, some of them ahead of it.
Legend:
[1] = molecular target: HIF-1 three-domain protein; test: cell-based or functional assay
HIF-1α PAS-B domain [2] = molecular target: T1, HIF-1α PAS-B domain (UniProt Q16665 238-349, limits assumed, labelled for MST (label not named)); test: MST (microscale thermophoresis), labelled HIF-1α PAS-B [part 3 of 14) B]
T1 construct: domain: PAS-B; 25 nM labelled protein in the assay; also called HIF-1α PAS-B protein; labelled HIF-1α PAS-B
T1 sequence (Q16665 238-349 limits assumed): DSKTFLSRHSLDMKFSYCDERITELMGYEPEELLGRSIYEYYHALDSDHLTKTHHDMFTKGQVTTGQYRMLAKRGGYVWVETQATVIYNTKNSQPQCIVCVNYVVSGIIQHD
Method: (§1) An aliquot of labelled HIF-1α PAS-B was thawed on ice and diluted to 50 nM with HIF MST assay buffer, before being centrifuged at 12,000 rpm for 15 minutes. […] Samples were loaded into NanoTemper® Monolith NT.115 premium treated capillaries and measurements were carried out using a Monolith NT.115 system at 25° C. using 50% MST power and 50% LED power. Data was analysed by NanoTemper® analysis software. Binding curves were fitted using GraphPad Prism 8 software.

HIF-1α PAS-B domain [3] = molecular target: T1, HIF-1α PAS-B domain; test: MST (microscale thermophoresis), labelled HIF-1α PAS-B [part 4 of 5]
Method: as §1

HIF-1α PAS-B domain [4] = molecular target: T1, HIF-1α PAS-B domain; test: MST (microscale thermophoresis), labelled HIF-1α PAS-B [part 3 of 5]
Method: as §1

B1: cyclo-CLLFVY (Cys leu leu phe val tyr) (peptide)
peptide: CLLFVY
modifications: cyclic peptide (cyclo-)
IC50 of inhibition of FAM-HRE DNA binding (fluorescence polarization) [1]: 76.5 µM

B2: Cyclo-CLLYVY (peptide)
cyclic peptide: CLLYVY
modifications: cyclic (cyclo-) peptide
notes: also called Y derivative at the phenylalanine position; Cys leu leu tyr val tyr
Kd (HIF-1α PAS-B domain [2]): > 200 µM

B3: cyclic peptide Met leu leu phe val tyr (peptide)
peptide: MLLFVY
modifications: cyclic peptide
notes: Comparative purposes only; also called M (methionine) cysteine derivative
binding result (HIF-1α PAS-B domain [3]): no binding

The remaining lines, values ahead:

binding result (HIF-1α PAS-B domain [4]): no binding
B4: cyclic peptide Thr leu leu phe val tyr (peptide)
peptide: TLLFVY
modifications: cyclic peptide
notes: Comparative purposes only; also called T (threonine) cysteine derivative

binding result (HIF-1α PAS-B domain [4]): no binding
B5: cyclic peptide Ser leu leu phe val tyr (peptide)
peptide: SLLFVY
modifications: cyclic peptide
notes: Comparative purposes only; also called S (serine) cysteine derivative

From patent US20260062447A1 (UNIVERSITY OF SOUTHAMPTON, published 2026)
